# Residue numbers refer to the chain shown, from its start.
# B1: cx5187 (other)
# chain 1: EVQLVESGGGEVQPGGSLRLSCAASGFSFSSNVMMWVRQAPGKGLEWVSTIYSSGTGTFYAESVKGRFTISRDNAKNTLYLQMSSLRPEDTAVYYCATSGPVRGWGPRSQGTLVTVKPPGGGGDKTHTCPPCPAPGGPSVFLFPPKPKDTLMISRTPEVTCVVVDVSHEDPEVKFNWYVDGVEVHNAKTKPREEQYNSTYRVVSVLTVLHQDWLNGKEYKCKVSNKALPAPIEKTISKAKGQPREPQVYTLPPCRDELTKNQVSLWCLVKGFYPSDIAVEWESNGQPENNYKTTPPVLDSDGSFFLYSKLTVDKSRWQQGNVFSCSVMHEALHNHYTQKSLSLSPTGGGGGSGGGGGSGGGGGSEVQLVESGGGLVQPGGSLRLSCAASGFTFNTYAMNWVRQAPGKCLEWVARIRSKYNNYATYYADSVKGRFTISRDDAKNTLYLQMSSLRAEDTAVYYCVRHGNFGNSYVSWFAYWGQGTLVTVKPGGGGEVQLVESGGGEVQPGGSLRLSCAASGFTFSSYHMSWFRQAPGKQREPVATSHHGGTTNYAGSVKGRFTISRDNAKNTVYLQMNTLRAEDTAVYYCKADHGYQGRGYWGQGTLVTVKP
# chain 2: DKTHTCPPCPAPGGPSVFLFPPKPKDTLMISRTPEVTCVVVDVSHEDPEVKFNWYVDGVEVHNAKTKPREEQYNSTYRVVSVLTVLHQDWLNGKEYKCKVSNKALPAPIEKTISKAKGQPREPQVCTLPPSRDELTKNQVSLSCAVKGFYPSDIAVEWESNGQPENNYKTTPPVLDSDGSFFLVSKLTVDKSRWQQGNVFSCSVMHEALHNRYTQKSLSLSPTGGGGGSGGGGGSGGGGGSQAVVTQEPSLTVSPGGTVTLTCGSSTGAVTTSNYANWVQQKPGQAFRGLIGGTNKRAPGVPARFSGSLLGGKAALTISGAQPEDEADYYCALWYSNHWVFGCGTKLEIKGGGGEVQLLESGGGEVQPGGSLRLSCAASGFSFSINAMGWYRQAPGKRREFVAAIESGRNTVYAESVKGRFTISRDNAKNTVYLQMSSLRAEDTAVYYCGLLKGNRVVSPSVAYWGQGTLVTVKP
# notes: hole 91, 93 or 296, differing at the C-terminal end; the first is written; also called bivalent, bi-epitopic B7H3-targeted constrained CD3 engaging construct; Knob-VH
# B2: cx5965 (other)
# chain 1: EVQLVESGGGEVQPGGSLRLSCAASGFSFSSNVMMWVRQAPGKGLEWVSTIYSSGTGTFYAESVKGRFTISRDNAKNTLYLQMSSLRPEDTAVYYCATSGPVRGWGPRSQGTLVTVKPPGGGGDKTHTCPPCPAPGGPSVFLFPPKPKDTLMISRTPEVTCVVVDVSHEDPEVKFNWYVDGVEVHNAKTKPREEQYNSTYRVVSVLTVLHQDWLNGKEYKCKVSNKALPAPIEKTISKAKGQPREPQVYTLPPCRDELTKNQVSLWCLVKGFYPSDIAVEWESNGQPENNYKTTPPVLDSDGSFFLYSKLTVDKSRWQQGNVFSCSVMHEALHNHYTQKSLSLSPTGGGGGSGGGGGSGGGGGSEVQLVESGGGLVQPGGSLRLSCAASGFTFNTYAMNWVRQAPGKCLEWVARIRSKYNNYATYYADSVKGRFTISRDDAKNTLYLQMSSLRAEDTAVYYCVRHGNFGNSYVSWFAYWGQGTLVTVKP
# chain 2: B1 chain 2
# notes: Fc alternatives printed; first written; Short peptide linkers only 'e.g.'; also called monovalent B7H3-targeting constrained CD3 engaging construct (N-terminal sdAb)
# B3: cx5873 (other)
# chain 1: DKTHTCPPCPAPGGPSVFLFPPKPKDTLMISRTPEVTCVVVDVSHEDPEVKFNWYVDGVEVHNAKTKPREEQYNSTYRVVSVLTVLHQDWLNGKEYKCKVSNKALPAPIEKTISKAKGQPREPQVYTLPPCRDELTKNQVSLWCLVKGFYPSDIAVEWESNGQPENNYKTTPPVLDSDGSFFLYSKLTVDKSRWQQGNVFSCSVMHEALHNHYTQKSLSLSPTGGGGGSGGGGGSGGGGGSEVQLVESGGGLVQPGGSLRLSCAASGFTFNTYAMNWVRQAPGKCLEWVARIRSKYNNYATYYADSVKGRFTISRDDAKNTLYLQMSSLRAEDTAVYYCVRHGNFGNSYVSWFAYWGQGTLVTVKPGGGGEVQLVESGGGEVQPGGSLRLSCAASGFTFSSYHMSWFRQAPGKQREPVATSHHGGTTNYAGSVKGRFTISRDNAKNTVYLQMNTLRAEDTAVYYCKADHGYQGRGYWGQGTLVTVKP
# chain 2: B1 chain 2
# notes: Fc alternatives printed; first written; Short peptide linkers only 'e.g.'; also called monovalent B7H3-targeting constrained CD3 engaging construct (C-terminal sdAb)
# B4: cx5823 (other)
# chain 1: B1 chain 1 with T346G, P540L
# chain 2: B1 chain 2 with T223G
# notes: Short peptide linkers only 'e.g.'; also called bivalent B7H3-targeting constrained CD3 engaging construct
# B5: cx5801 (other)
# chain 1: DKTHTCPPCPAPGGPSVFLFPPKPKDTLMISRTPEVTCVVVDVSHEDPEVKFNWYVDGVEVHNAKTKPREEQYNSTYRVVSVLTVLHQDWLNGKEYKCKVSNKALPAPIEKTISKAKGQPREPQVYTLPPCRDELTKNQVSLWCLVKGFYPSDIAVEWESNGQPENNYKTTPPVLDSDGSFFLYSKLTVDKSRWQQGNVFSCSVMHEALHNHYTQKSLSLSPTGGGGGSGGGGGSGGGGGSEVQLVESGGGLVQPGGSLRLSCAASGFTFNTYAMNWVRQAPGKCLEWVARIRSKYNNYATYYADSVKGRFTISRDDAKNTLYLQMSSLRAEDTAVYYCVRHGNFGNSYVSWFAYWGQGTLVTVKPGGGGEVQLVESGGGEVQPGGSLRLSCGPSEIITSDKSMGWVRQAPGKQRNLVAGISNVGSTNYAQSVKGRFTISRDNAKNTVYLQMSSLRAEDTAVYYCYARDFENEYWGQGTLVTVKP
# chain 2: B1 chain 2
# notes: Fc alternatives printed; first written; Short peptide linkers only 'e.g.'; also called monovalent DLL3-targeted constrained CD3 engaging construct (C-terminal sdAb)
# B6: cx5800 (other)
# chain 1: EVQLVESGGGEVQPGGSLRLSCAASGSIFSINAMGWYRQAPGKQRELVAGFTGDTNTIYAESVKGRFTISRDNAKNTVYLQMSSLRAEDTAVYYCAADVQLFSRDYEFYWGQGTLVTVKPPGGGGDKTHTCPPCPAPGGPSVFLFPPKPKDTLMISRTPEVTCVVVDVSHEDPEVKFNWYVDGVEVHNAKTKPREEQYNSTYRVVSVLTVLHQDWLNGKEYKCKVSNKALPAPIEKTISKAKGQPREPQVYTLPPCRDELTKNQVSLWCLVKGFYPSDIAVEWESNGQPENNYKTTPPVLDSDGSFFLYSKLTVDKSRWQQGNVFSCSVMHEALHNHYTQKSLSLSPTGGGGGSGGGGGSGGGGGSEVQLVESGGGLVQPGGSLRLSCAASGFTFNTYAMNWVRQAPGKCLEWVARIRSKYNNYATYYADSVKGRFTISRDDAKNTLYLQMSSLRAEDTAVYYCVRHGNFGNSYVSWFAYWGQGTLVTVKP
# chain 2: B1 chain 2
# notes: Fc alternatives printed; first written; Short peptide linkers only 'e.g.'; also called monovalent DLL3-targeted constrained CD3 engaging construct (N-terminal sdAb)
# B7: cx5352 (other)
# chain 1: EVQLVESGGGEVQPGGSLRLSCAASGSIFSINAMGWYRQAPGKQRELVAGFTGDTNTIYAESVKGRFTISRDNAKNTVYLQMSSLRAEDTAVYYCAADVQLFSRDYEFYWGQGTLVTVKPPGGGGDKTHTCPPCPAPGGPSVFLFPPKPKDTLMISRTPEVTCVVVDVSHEDPEVKFNWYVDGVEVHNAKTKPREEQYNSTYRVVSVLTVLHQDWLNGKEYKCKVSNKALPAPIEKTISKAKGQPREPQVYTLPPCRDELTKNQVSLWCLVKGFYPSDIAVEWESNGQPENNYKTTPPVLDSDGSFFLYSKLTVDKSRWQQGNVFSCSVMHEALHNHYTQKSLSLSPTGGGGGSGGGGGSGGGGGSEVQLVESGGGLVQPGGSLRLSCAASGFTFNTYAMNWVRQAPGKCLEWVARIRSKYNNYATYYADSVKGRFTISRDDAKNTLYLQMSSLRAEDTAVYYCVRHGNFGNSYVSWFAYWGQGTLVTVKPGGGGEVQLVESGGGEVQPGGSLRLSCGPSEIITSDKSMGWVRQAPGKQRNLVAGISNVGSTNYAQSVKGRFTISRDNAKNTVYLQMSSLRAEDTAVYYCYARDFENEYWGQGTLVTVKP
# chain 2: B1 chain 2
# notes: Fc alternatives printed; first written; Short peptide linkers only 'e.g.'
# Biological target: T1, B7H3 (UniProt Q5ZPR3 29-534, limits assumed)
# T1 construct: whole, on cells; also called CD276
# T1 sequence (looked up): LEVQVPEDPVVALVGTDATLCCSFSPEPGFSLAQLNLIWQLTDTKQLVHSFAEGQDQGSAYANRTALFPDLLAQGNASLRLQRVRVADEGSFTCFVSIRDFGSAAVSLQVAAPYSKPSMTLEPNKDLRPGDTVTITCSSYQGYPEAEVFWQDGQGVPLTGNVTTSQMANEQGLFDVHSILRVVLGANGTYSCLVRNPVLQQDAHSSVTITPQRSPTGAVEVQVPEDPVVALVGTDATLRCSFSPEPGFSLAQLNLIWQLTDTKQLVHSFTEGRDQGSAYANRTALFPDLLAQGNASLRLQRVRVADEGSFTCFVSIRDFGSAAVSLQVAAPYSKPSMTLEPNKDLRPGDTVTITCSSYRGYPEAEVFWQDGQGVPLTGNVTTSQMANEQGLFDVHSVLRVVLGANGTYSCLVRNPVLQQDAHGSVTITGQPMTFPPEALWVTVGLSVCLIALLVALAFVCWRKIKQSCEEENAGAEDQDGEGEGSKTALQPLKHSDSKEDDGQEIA
# Assay: cell binding assay on A375 cells
row,Binder,binding result
1,B1,binds
2,B2,binds
3,B3,binds

# Biological target: T2, CD3 (human, UniProt P07766 23-207)
# T2 construct: whole, on cells; CD3 is a multi-chain complex; also called CD3ε; CD3 on the surface of primary T cells
# T2 sequence (P07766 23-207): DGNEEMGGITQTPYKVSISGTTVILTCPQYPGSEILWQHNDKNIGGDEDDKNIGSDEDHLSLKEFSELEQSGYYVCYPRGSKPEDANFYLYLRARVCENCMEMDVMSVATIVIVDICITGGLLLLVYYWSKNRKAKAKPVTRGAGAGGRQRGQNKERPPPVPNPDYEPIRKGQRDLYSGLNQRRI
# Assay: cell binding assay on isolated primary T cells
row,Binder,binding result
1,B1,no binding
2,B2,no binding
3,B3,no binding
4,B4,no binding

# Biological target: T3, DLL3 (human, UniProt Q9NYJ7 27-618)
# T3 construct: also called Delta-like 3; Human DLL3
# T3 sequence: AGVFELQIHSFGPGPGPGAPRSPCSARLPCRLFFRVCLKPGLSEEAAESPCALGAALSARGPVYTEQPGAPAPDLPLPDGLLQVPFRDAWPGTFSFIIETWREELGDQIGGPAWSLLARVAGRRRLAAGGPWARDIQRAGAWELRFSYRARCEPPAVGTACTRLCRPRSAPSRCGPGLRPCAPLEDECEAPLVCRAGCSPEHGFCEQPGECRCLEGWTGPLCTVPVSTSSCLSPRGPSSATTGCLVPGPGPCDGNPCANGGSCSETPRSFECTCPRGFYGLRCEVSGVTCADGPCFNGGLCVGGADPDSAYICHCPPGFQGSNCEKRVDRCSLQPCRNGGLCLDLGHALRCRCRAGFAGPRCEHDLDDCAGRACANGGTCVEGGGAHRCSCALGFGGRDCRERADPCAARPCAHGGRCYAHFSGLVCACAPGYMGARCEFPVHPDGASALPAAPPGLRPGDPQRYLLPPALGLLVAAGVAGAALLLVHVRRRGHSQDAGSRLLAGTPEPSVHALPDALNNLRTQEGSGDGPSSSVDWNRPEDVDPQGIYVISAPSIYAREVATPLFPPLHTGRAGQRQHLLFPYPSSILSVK
# Assay: flow cytometry on SHP-77 cells, anti-human IgG Fc secondary
# Experimental: (§1) Binding of exemplary multispecific constructs containing an antigen-binding domain directed against DLL3 were assessed for binding to DLL3 positive SHP-77 tumor cells or primary T-cells. […] These binding assays were conducted by flow cytometry, wherein bound constructs were detected using a fluorophore-conjugated anti-human IgG Fc secondary antibody.
row,Binder,binding result
1,B5,binds
2,B6,binds
3,B7,binds

# Biological target: T2, CD3
# Assay: flow cytometry on primary T cells, anti-human IgG Fc secondary
# Experimental: as §1
row,Binder,binding result
1,B5,no binding
2,B6,no binding
3,B7,no binding
